Assays:
Test in all cases: BLI (Octet), biotinylated RBD on streptavidin biosensor, Fab in solution
[1] = biological target: Omicron strain (BA.1) RBD, biotinylated (SARS-CoV-2 (Omicron strain BA.1), UniProt P0DTC2 331-529)
[2] = biological target: Delta strain RBD, biotinylated (SARS-CoV-2 (Delta strain), UniProt P0DTC2 331-529)
[3] = biological target: Omicron strain (BA.2) RBD, biotinylated (SARS-CoV-2 (Omicron strain BA.2), UniProt P0DTC2 331-529)

Measured: Kd

B1: recombinant Fab protein of antibody No. 7 (Fab, V domains shown)
VH: EVQLLESGGGLVQPGGSLRLSCAASGFTFSRYALSWVRQAPGKGLEWVSAISGAAITTYYADSVKGRFTISRDDSRNTLFMQMDSLRAEDTAVYYCAKGDYYDSSGYLAEYFPHWGQGTLVTVSS
VL: SYELTQPPSVSVSPGQTARITCFADALPKQHAYWYQQKAGQAPVLVIFKDTERPSGIPKRFSGSRSGATVTLTISGVQAEDEADYYCQSTDISGVLFGGGTKLTVL
≤ 0.1 µM: all assays above

B2: recombinant Fab protein of antibody No. 2 (Fab, V domains shown)
VH: EVQLVESGGGVVQPGRSLRLSCAASGFKFSKFAMHWVRQAPGKGPEWVAVISYDGNQYHSADSVKGRFTISRDNSFNTLYLQMNSLGPEDTAVYYCARDGPDTSGYYANIYFDFWGQGTLVTVSS
VL: QSVLTQPPSVSGAPGQRVTISCTGSSSNIGAGYDVHWYQQLPGRAPKLLIFDNNNRPSGVPDRFSGSKSGTSASLAITGLQTEDEAYYYCQSYDNSLILAVFGGGTKVTVL
≤ 0.1 µM: all assays above

B3: recombinant Fab protein of antibody No. 6 (Fab, V domains shown)
VH: QVQLVQSGPEVKKPGTSVKVSCKASGFTFYYSAVQWVRQARGQRLEWLGWMAVGSGKANYAQKFQERLTLTRDMSTSTAYMELSSLRSEDTAVYYCAAPNCTGGSCYDGFNLWGQGTVVTVSS
VL: EIVLTQSPGTLSLSPGDRAILSCRASQTVNSNYLAWYQQKPGQAPRLLIYGTSSRATGIPDRFSGSGSGTDFTLTISRLEPEDFAVYYCQQYGSSPWLFGQGTKVEIK
≤ 0.1 µM: all assays above

B4: recombinant Fab protein of antibody No. 5 (Fab, V domains shown)
VH: EVQLVESGGGLVQPGGSLRLSCAASGFTFYSYWMTWVRQAPGKGLEWVANIKHDESESHYVDSVRGRFTISRDNAKNSVYLQMKGLRAEDTAVYYCARDGGYNILTAYYHAPSYWGQGTLVTVSS
VL: QSALTQPASVSGSPGQSITISCTGTSSDVGGYNFVSWYRQYPGKAPQLMIYDVSRRPSGDSDRFSGSKSGNTASLTISGLQAEDEAEYHCSSYTGRSPYVVFGGGTKVTVL
≤ 0.1 µM: all assays above
